Molecular target: the molecule itself
Assay: cryo-EM structure

B1: human asparagine synthetase (ASNS) (enzyme)
chain: CGIWALFGSDDCLSVQCLSAMKIAHRGPDAFRFENVNGYTNCCFGFHRLAVVDPLFGMQPIRVKKYPYLWLCYNGEIYNHKKMQQHFEFEYQTKVDGEIILHLYDKGGIEQTICMLDGVFAFVLLDTANKKVFLGRDTYGVRPLFKAMTEDGFLAVCSEAKGLVTLKHSATPFLKVEPFLPGHYEVLDLKPNGKVASVEMVKYHHCRDVPLHALYDNVEKLFPGFEIETVKNNLRILFNNAVKKRLMTDRRIGCLLSGGLDSSLVAATLLKQLKEAQVQYPLQTFAIGMEDSPDLLAARKVADHIGSEHYEVLFNSEEGIQALDEVIFSLETYDITTVRASVGMYLISKYIRKNTDSVVIFSGEGSDELTQGYIYFHKAPSPEKAEEESERLLRELYLFDVLRADRTTAAHGLELRVPFLDHRFSSYYLSLPPEMRIPKNGIEKHLLRETFEDSNLIPKEILWRPKEAFSDGITSVKNSWFKILQEYVEHQVDDAMMANAAQKFPFNTPKTKEGYYYRQVFERHYPGRADWLSHYWMPKWINATDPSARTLTHYKSAVKA
- stoichiometry N: 2
